B1: GLS3000 G89I (antibody, name in Kabat numbering, V domains shown)
VH: QVQLVESGGGVVQPGRSLRLSCAASGFTFSNAWMHWVRQAPGKGLEWVAQIKAKSNNYATYYAESVKGRFTISRDDSKNSLYLQMNSLKTEDTAVYYCRYVHYGAYYGVDAWGQGTTVTVSS
VL: DIVMTQSPLSLPVTPGEPASISCRSSQSLVHSNRNTYLHWYQQKPGQAPRLLIYKVSNRFSGVPDRFSGSGSGTDFTLKISRVEAEDVGVYYCIQGTQVPYTFGQGTKLEIK
notes: one-arm IgG as m2
B2: GLS3000 G89Y (antibody, name in Kabat numbering, V domains shown)
VH: QVQLVESGGGVVQPGRSLRLSCAASGFTFSNAWMHWVRQAPGKGLEWVAQIKAKSNNYATYYAESVKGRFTISRDDSKNSLYLQMNSLKTEDTAVYYCRYVHYGAYYGVDAWGQGTTVTVSS
VL: DIVMTQSPLSLPVTPGEPASISCRSSQSLVHSNRNTYLHWYQQKPGQAPRLLIYKVSNRFSGVPDRFSGSGSGTDFTLKISRVEAEDVGVYYCYQGTQVPYTFGQGTKLEIK
notes: one-arm IgG as m2
B3: GLS3000 G91E (antibody, name in Kabat numbering, V domains shown)
VH: QVQLVESGGGVVQPGRSLRLSCAASGFTFSNAWMHWVRQAPGKGLEWVAQIKAKSNNYATYYAESVKGRFTISRDDSKNSLYLQMNSLKTEDTAVYYCRYVHYGAYYGVDAWGQGTTVTVSS
VL: DIVMTQSPLSLPVTPGEPASISCRSSQSLVHSNRNTYLHWYQQKPGQAPRLLIYKVSNRFSGVPDRFSGSGSGTDFTLKISRVEAEDVGVYYCGQETQVPYTFGQGTKLEIK
notes: one-arm IgG as m2
B4: GLS3000 G91A (antibody, name in Kabat numbering, V domains shown)
VH: QVQLVESGGGVVQPGRSLRLSCAASGFTFSNAWMHWVRQAPGKGLEWVAQIKAKSNNYATYYAESVKGRFTISRDDSKNSLYLQMNSLKTEDTAVYYCRYVHYGAYYGVDAWGQGTTVTVSS
VL: DIVMTQSPLSLPVTPGEPASISCRSSQSLVHSNRNTYLHWYQQKPGQAPRLLIYKVSNRFSGVPDRFSGSGSGTDFTLKISRVEAEDVGVYYCGQATQVPYTFGQGTKLEIK
notes: one-arm IgG as m2
B5: GLS3000 G89T (antibody, name in Kabat numbering, V domains shown)
VH: QVQLVESGGGVVQPGRSLRLSCAASGFTFSNAWMHWVRQAPGKGLEWVAQIKAKSNNYATYYAESVKGRFTISRDDSKNSLYLQMNSLKTEDTAVYYCRYVHYGAYYGVDAWGQGTTVTVSS
VL: DIVMTQSPLSLPVTPGEPASISCRSSQSLVHSNRNTYLHWYQQKPGQAPRLLIYKVSNRFSGVPDRFSGSGSGTDFTLKISRVEAEDVGVYYCTQGTQVPYTFGQGTKLEIK
notes: one-arm IgG as m2
B6: GLS3000 G89W (antibody, name in Kabat numbering, V domains shown)
VH: QVQLVESGGGVVQPGRSLRLSCAASGFTFSNAWMHWVRQAPGKGLEWVAQIKAKSNNYATYYAESVKGRFTISRDDSKNSLYLQMNSLKTEDTAVYYCRYVHYGAYYGVDAWGQGTTVTVSS
VL: DIVMTQSPLSLPVTPGEPASISCRSSQSLVHSNRNTYLHWYQQKPGQAPRLLIYKVSNRFSGVPDRFSGSGSGTDFTLKISRVEAEDVGVYYCWQGTQVPYTFGQGTKLEIK
notes: one-arm IgG as m2
B7: GLS3000 G89N (antibody, name in Kabat numbering, V domains shown)
VH: QVQLVESGGGVVQPGRSLRLSCAASGFTFSNAWMHWVRQAPGKGLEWVAQIKAKSNNYATYYAESVKGRFTISRDDSKNSLYLQMNSLKTEDTAVYYCRYVHYGAYYGVDAWGQGTTVTVSS
VL: DIVMTQSPLSLPVTPGEPASISCRSSQSLVHSNRNTYLHWYQQKPGQAPRLLIYKVSNRFSGVPDRFSGSGSGTDFTLKISRVEAEDVGVYYCNQGTQVPYTFGQGTKLEIK
notes: one-arm IgG as m2
B8: GLS3000 G89P (antibody, name in Kabat numbering, V domains shown)
VH: QVQLVESGGGVVQPGRSLRLSCAASGFTFSNAWMHWVRQAPGKGLEWVAQIKAKSNNYATYYAESVKGRFTISRDDSKNSLYLQMNSLKTEDTAVYYCRYVHYGAYYGVDAWGQGTTVTVSS
VL: DIVMTQSPLSLPVTPGEPASISCRSSQSLVHSNRNTYLHWYQQKPGQAPRLLIYKVSNRFSGVPDRFSGSGSGTDFTLKISRVEAEDVGVYYCPQGTQVPYTFGQGTKLEIK
notes: one-arm IgG as m2
B9: GLS3000 G89R (antibody, name in Kabat numbering, V domains shown)
VH: QVQLVESGGGVVQPGRSLRLSCAASGFTFSNAWMHWVRQAPGKGLEWVAQIKAKSNNYATYYAESVKGRFTISRDDSKNSLYLQMNSLKTEDTAVYYCRYVHYGAYYGVDAWGQGTTVTVSS
VL: DIVMTQSPLSLPVTPGEPASISCRSSQSLVHSNRNTYLHWYQQKPGQAPRLLIYKVSNRFSGVPDRFSGSGSGTDFTLKISRVEAEDVGVYYCRQGTQVPYTFGQGTKLEIK
notes: one-arm IgG as m2
B10: GLS3000 G91P (antibody, name in Kabat numbering, V domains shown)
VH: QVQLVESGGGVVQPGRSLRLSCAASGFTFSNAWMHWVRQAPGKGLEWVAQIKAKSNNYATYYAESVKGRFTISRDDSKNSLYLQMNSLKTEDTAVYYCRYVHYGAYYGVDAWGQGTTVTVSS
VL: DIVMTQSPLSLPVTPGEPASISCRSSQSLVHSNRNTYLHWYQQKPGQAPRLLIYKVSNRFSGVPDRFSGSGSGTDFTLKISRVEAEDVGVYYCGQPTQVPYTFGQGTKLEIK
notes: one-arm IgG as m2
B11: GLS3000 G89M (antibody, name in Kabat numbering, V domains shown)
VH: QVQLVESGGGVVQPGRSLRLSCAASGFTFSNAWMHWVRQAPGKGLEWVAQIKAKSNNYATYYAESVKGRFTISRDDSKNSLYLQMNSLKTEDTAVYYCRYVHYGAYYGVDAWGQGTTVTVSS
VL: DIVMTQSPLSLPVTPGEPASISCRSSQSLVHSNRNTYLHWYQQKPGQAPRLLIYKVSNRFSGVPDRFSGSGSGTDFTLKISRVEAEDVGVYYCMQGTQVPYTFGQGTKLEIK
notes: one-arm IgG as m2
B12: GLS3000 G89K (antibody, name in Kabat numbering, V domains shown)
VH: QVQLVESGGGVVQPGRSLRLSCAASGFTFSNAWMHWVRQAPGKGLEWVAQIKAKSNNYATYYAESVKGRFTISRDDSKNSLYLQMNSLKTEDTAVYYCRYVHYGAYYGVDAWGQGTTVTVSS
VL: DIVMTQSPLSLPVTPGEPASISCRSSQSLVHSNRNTYLHWYQQKPGQAPRLLIYKVSNRFSGVPDRFSGSGSGTDFTLKISRVEAEDVGVYYCKQGTQVPYTFGQGTKLEIK
notes: one-arm IgG as m2
B13: GLS3000 G89L (antibody, name in Kabat numbering, V domains shown)
VH: QVQLVESGGGVVQPGRSLRLSCAASGFTFSNAWMHWVRQAPGKGLEWVAQIKAKSNNYATYYAESVKGRFTISRDDSKNSLYLQMNSLKTEDTAVYYCRYVHYGAYYGVDAWGQGTTVTVSS
VL: DIVMTQSPLSLPVTPGEPASISCRSSQSLVHSNRNTYLHWYQQKPGQAPRLLIYKVSNRFSGVPDRFSGSGSGTDFTLKISRVEAEDVGVYYCLQGTQVPYTFGQGTKLEIK
notes: one-arm IgG as m2
B14: GLS3000 G89V (antibody, name in Kabat numbering, V domains shown)
VH: QVQLVESGGGVVQPGRSLRLSCAASGFTFSNAWMHWVRQAPGKGLEWVAQIKAKSNNYATYYAESVKGRFTISRDDSKNSLYLQMNSLKTEDTAVYYCRYVHYGAYYGVDAWGQGTTVTVSS
VL: DIVMTQSPLSLPVTPGEPASISCRSSQSLVHSNRNTYLHWYQQKPGQAPRLLIYKVSNRFSGVPDRFSGSGSGTDFTLKISRVEAEDVGVYYCVQGTQVPYTFGQGTKLEIK
notes: one-arm IgG as m2
B15: GLS3000 G91D (antibody, name in Kabat numbering, V domains shown)
VH: QVQLVESGGGVVQPGRSLRLSCAASGFTFSNAWMHWVRQAPGKGLEWVAQIKAKSNNYATYYAESVKGRFTISRDDSKNSLYLQMNSLKTEDTAVYYCRYVHYGAYYGVDAWGQGTTVTVSS
VL: DIVMTQSPLSLPVTPGEPASISCRSSQSLVHSNRNTYLHWYQQKPGQAPRLLIYKVSNRFSGVPDRFSGSGSGTDFTLKISRVEAEDVGVYYCGQDTQVPYTFGQGTKLEIK
notes: one-arm IgG as m2
B16: GLS3000 H27dD (antibody, name in Kabat numbering, V domains shown)
VH: QVQLVESGGGVVQPGRSLRLSCAASGFTFSNAWMHWVRQAPGKGLEWVAQIKAKSNNYATYYAESVKGRFTISRDDSKNSLYLQMNSLKTEDTAVYYCRYVHYGAYYGVDAWGQGTTVTVSS
VL: DIVMTQSPLSLPVTPGEPASISCRSSQSLVDSNRNTYLHWYQQKPGQAPRLLIYKVSNRFSGVPDRFSGSGSGTDFTLKISRVEAEDVGVYYCGQGTQVPYTFGQGTKLEIK
notes: one-arm IgG as m2
B17: GLS3000 G89Q (antibody, name in Kabat numbering, V domains shown)
VH: QVQLVESGGGVVQPGRSLRLSCAASGFTFSNAWMHWVRQAPGKGLEWVAQIKAKSNNYATYYAESVKGRFTISRDDSKNSLYLQMNSLKTEDTAVYYCRYVHYGAYYGVDAWGQGTTVTVSS
VL: DIVMTQSPLSLPVTPGEPASISCRSSQSLVHSNRNTYLHWYQQKPGQAPRLLIYKVSNRFSGVPDRFSGSGSGTDFTLKISRVEAEDVGVYYCQQGTQVPYTFGQGTKLEIK
notes: one-arm IgG as m2
B18: GLS3000 G91T (antibody, name in Kabat numbering, V domains shown)
VH: QVQLVESGGGVVQPGRSLRLSCAASGFTFSNAWMHWVRQAPGKGLEWVAQIKAKSNNYATYYAESVKGRFTISRDDSKNSLYLQMNSLKTEDTAVYYCRYVHYGAYYGVDAWGQGTTVTVSS
VL: DIVMTQSPLSLPVTPGEPASISCRSSQSLVHSNRNTYLHWYQQKPGQAPRLLIYKVSNRFSGVPDRFSGSGSGTDFTLKISRVEAEDVGVYYCGQTTQVPYTFGQGTKLEIK
notes: one-arm IgG as m2
B19: GLS3000 G91Y (antibody, name in Kabat numbering, V domains shown)
VH: QVQLVESGGGVVQPGRSLRLSCAASGFTFSNAWMHWVRQAPGKGLEWVAQIKAKSNNYATYYAESVKGRFTISRDDSKNSLYLQMNSLKTEDTAVYYCRYVHYGAYYGVDAWGQGTTVTVSS
VL: DIVMTQSPLSLPVTPGEPASISCRSSQSLVHSNRNTYLHWYQQKPGQAPRLLIYKVSNRFSGVPDRFSGSGSGTDFTLKISRVEAEDVGVYYCGQYTQVPYTFGQGTKLEIK
notes: one-arm IgG as m2
B20: GLS3000 G91S (antibody, name in Kabat numbering, V domains shown)
VH: QVQLVESGGGVVQPGRSLRLSCAASGFTFSNAWMHWVRQAPGKGLEWVAQIKAKSNNYATYYAESVKGRFTISRDDSKNSLYLQMNSLKTEDTAVYYCRYVHYGAYYGVDAWGQGTTVTVSS
VL: DIVMTQSPLSLPVTPGEPASISCRSSQSLVHSNRNTYLHWYQQKPGQAPRLLIYKVSNRFSGVPDRFSGSGSGTDFTLKISRVEAEDVGVYYCGQSTQVPYTFGQGTKLEIK
notes: one-arm IgG as m2

T1 sequence (P07766 23-126): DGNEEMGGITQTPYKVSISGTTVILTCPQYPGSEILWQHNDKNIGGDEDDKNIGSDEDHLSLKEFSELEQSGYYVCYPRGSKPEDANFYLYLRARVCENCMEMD

The experiment has as its target T1, CD3 epsilon homodimer protein (UniProt P07766 23-126).
T1 construct: also called CD3 (CD3 epsilon)
Kind of experiment: SPR Biacore T200, CD3e homodimer on chip, vs unaltered GLS3000 antibody. For orientation: SPR reads the build-up and loss of mass on a sensor chip optically.
For the molecule B1, the “ratio of amounts bound (Z=Y/X)” value turned out to be 1.07.

As to B2, the “ratio of amounts bound (Z=Y/X)” value is 1.19.

B3: the “ratio of amounts bound (Z=Y/X)” value was 0.16.

As to B4, the “ratio of amounts bound (Z=Y/X)” value is 0.27.

As to B5, the “ratio of amounts bound (Z=Y/X)” value is 1.03.

On to B6, for which the “ratio of amounts bound (Z=Y/X)” value came to 0.5.

As for B7, the “ratio of amounts bound (Z=Y/X)” value amounted to 0.8.

On to B8, for which the “ratio of amounts bound (Z=Y/X)” value turned out to be 0.35.

For the molecule B9, the “ratio of amounts bound (Z=Y/X)” value was 0.19.

Consider B10, for which the “ratio of amounts bound (Z=Y/X)” value came out at 0.27.

As to B11, the “ratio of amounts bound (Z=Y/X)” value is 0.52.

For B12, the “ratio of amounts bound (Z=Y/X)” value was determined as 0.4.

For B13, the “ratio of amounts bound (Z=Y/X)” value was 0.94.

As for B14, the “ratio of amounts bound (Z=Y/X)” value stood at 1.63.

For the molecule B15, the “ratio of amounts bound (Z=Y/X)” value was determined as 0.16.

For the molecule B16, the “ratio of amounts bound (Z=Y/X)” value came out at 0.22.

As to B17, the “ratio of amounts bound (Z=Y/X)” value worked out at 0.38.

For B18, the “ratio of amounts bound (Z=Y/X)” value was found to be 0.26.

Take B19: the “ratio of amounts bound (Z=Y/X)” value was 0.17.

In the case of B20, the “ratio of amounts bound (Z=Y/X)” value was found to be 0.26.
